Source: patent US20040141994

Target: UL12 alkaline nuclease (Herpes simplex virus 1) (UniProt P04294)
Assay: cleavage_in_vitro
Conditions: optimal nuclease conditions; 0.06 at strand exchange conditions (pH 7.5, 1 mM MgCl2, 40 mM NaCl, 37 C)

Sequence of UL12 alkaline nuclease (Herpes simplex virus 1) (P04294 whole entry): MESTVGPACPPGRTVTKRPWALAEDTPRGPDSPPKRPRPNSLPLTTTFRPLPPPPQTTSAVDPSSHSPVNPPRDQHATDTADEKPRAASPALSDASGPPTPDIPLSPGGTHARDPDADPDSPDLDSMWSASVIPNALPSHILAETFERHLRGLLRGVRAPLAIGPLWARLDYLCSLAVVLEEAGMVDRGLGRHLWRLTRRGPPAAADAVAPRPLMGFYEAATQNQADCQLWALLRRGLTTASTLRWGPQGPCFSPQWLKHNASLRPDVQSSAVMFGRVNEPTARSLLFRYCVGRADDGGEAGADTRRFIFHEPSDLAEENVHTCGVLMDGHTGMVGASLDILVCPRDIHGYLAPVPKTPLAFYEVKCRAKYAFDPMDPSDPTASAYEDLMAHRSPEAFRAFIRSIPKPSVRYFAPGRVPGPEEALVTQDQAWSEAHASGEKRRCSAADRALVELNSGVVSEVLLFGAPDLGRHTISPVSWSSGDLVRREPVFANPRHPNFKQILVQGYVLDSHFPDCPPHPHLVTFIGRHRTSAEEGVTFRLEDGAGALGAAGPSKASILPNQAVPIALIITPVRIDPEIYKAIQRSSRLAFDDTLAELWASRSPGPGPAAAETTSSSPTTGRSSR

Substance: E. coli chromosomal DNA
- activity (ng DNA/min/ng protein): 0.2
